Results reported in patent US20050176069A1 (PHARMACIA AND UPJOHN, published 2005).
“And” between values parts separate entries of the source, which are not always exact repeats. Identical values can stand only once. Where no end group is shown, it is not given here. [ ]: non-standard residue; d: D form. Tyr(3-I) = N[C@@H](Cc1ccc(O)c(I)c1)C(=O)O; Nle = CCCC[C@H](N)C(=O)O

T1: CEGPCR4 (C. elegans)
T1 construct: Expressed in CHO cells
T1 chain: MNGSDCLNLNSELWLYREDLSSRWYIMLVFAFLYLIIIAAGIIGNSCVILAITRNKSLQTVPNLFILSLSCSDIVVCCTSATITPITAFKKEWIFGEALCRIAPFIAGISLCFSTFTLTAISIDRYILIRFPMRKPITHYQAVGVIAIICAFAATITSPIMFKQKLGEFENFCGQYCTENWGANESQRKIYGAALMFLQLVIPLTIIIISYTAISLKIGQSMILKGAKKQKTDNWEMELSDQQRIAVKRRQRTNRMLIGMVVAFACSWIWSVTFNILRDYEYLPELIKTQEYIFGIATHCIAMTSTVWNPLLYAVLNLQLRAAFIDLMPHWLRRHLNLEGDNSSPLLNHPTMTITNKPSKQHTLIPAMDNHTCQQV

B1: ILNleRF-NH2 (peptide)
peptide: IL[Nle]RF-NH2
modifications: N-terminus assumed
SMILES: CCCC[C@H](NC(=O)[C@H](CC(C)C)NC(=O)[C@@H](N)[C@@H](C)CC)C(=O)N[C@@H](CCCNC(=N)N)C(=O)N[C@@H](Cc1ccccc1)C(N)=O
notes: Synthetic
B2: TNRNFLRF-NH2 (Lobster peptide II) (peptide)
peptide: TNRNFLRF-NH2
B3: GVLRF-NH2 (peptide)
peptide: GVLRF-NH2
B4: NGAPQPFVRF-NH2 (peptide)
peptide: NGAPQPFVRF-NH2
B5: SAEPFGTMRF-NH2 (peptide)
peptide: SAEPFGTMRF-NH2
B6: Ac-GVLRF-NH2 (peptide)
peptide: Ac-GVLRF-NH2
B7: PGVLRF-NH2 (peptide)
peptide: PGVLRF-NH2
B8: Y-GVLRF-NH2 (peptide)
peptide: YGVLRF-NH2
notes: Synthetic
B9: 3-Iodo-Y-DVPGVLRF-NH2 (peptide)
peptide: [Tyr(3-I)]DVPGVLRF-NH2
modifications: also: 125I in the radiolabelled probe
notes: N-terminally iodo-Tyr-extended flp18 analog
B10: SDNFMRF-NH2 (peptide)
peptide: SDNFMRF-NH2
B11: PDNFMRF-NH2 (peptide)
peptide: PDNFMRF-NH2
B12: KPNFLRF-NH2 (peptide)
peptide: KPNFLRF-NH2
B13: DVPGVLRF-NH2 (peptide)
peptide: DVPGVLRF-NH2
B14: Y-VPGVLRF-NH2 (peptide)
peptide: YVPGVLRF-NH2
notes: Synthetic
B15: ASPSFIRF-NH2 (peptide)
peptide: ASPSFIRF-NH2
B16: Y-DVPGVLRF-NH2 (peptide)
peptide: YDVPGVLRF-NH2
B17: DFDGAMPGVLRF-NH2 (peptide)
peptide: DFDGAMPGVLRF-NH2
B18: VPGVLRF-NH2 (peptide)
peptide: VPGVLRF-NH2
B19: Y-PGVLRF-NH2 (peptide)
peptide: YPGVLRF-NH2
notes: Synthetic
B20: EIPGVLRF-NH2 (peptide)
peptide: EIPGVLRF-NH2
B21: KSVPGVLRF-NH2 (peptide)
peptide: KSVPGVLRF-NH2
B22: Ac-VPGVLRF-NH2 (peptide)
peptide: Ac-VPGVLRF-NH2
B23: SPLGTMRF-NH2 (peptide)
peptide: SPLGTMRF-NH2
B24: EIVFHQISPIFFRF-NH2 (peptide)
peptide: EIVFHQISPIFFRF-NH2
B25: VLRF-NH2 (peptide)
peptide: VLRF-NH2
notes: also called C-terminal tetrapeptide VLRF-NH2
B26: 3-Iodo-Y-VPGVLRF-NH2 (peptide)
peptide: [Tyr(3-I)]VPGVLRF-NH2
modifications: N-terminus assumed
SMILES: CC(C)C[C@H](NC(=O)[C@@H](NC(=O)CNC(=O)[C@@H]1CCCN1C(=O)[C@@H](NC(=O)[C@@H](N)Cc1ccc(O)c(I)c1)C(C)C)C(C)C)C(=O)N[C@@H](CCCNC(=N)N)C(=O)N[C@@H](Cc1ccccc1)C(N)=O
notes: Synthetic

Target: T1, CEGPCR4
Assay: competition binding assay, CEGPCR4/CHO membranes, vs [125I-Y]DVPGVLRF-NH2

B1 and B2 cannot be ordered by IC50: 60000 to 900000 nM for the first, 50000 to 500000 nM for the second.

First: B3
Second: B4
The IC50 of the first is lower: 1 to 60 nM for the first, 50000 to 500000 nM for the second.

First: B5
Second: B6
The IC50 of the first is higher: 50000 to 500000 nM for the first, 1 to 60 nM for the second. The second is the more potent here.

B7 and B8 fall in the same range of IC50: 1 to 60 nM for the first, 1 to 60 nM for the second.

First: B9
Second: B10
The IC50 of the first is lower: 1 to 60 nM for the first, 50000 to 500000 nM for the second. The first is the more potent here.

B11 and B12 cannot be ordered by IC50: 50000 to 500000 nM for the first, 60000 to 900000 nM for the second.

B14 and B15 cannot be ordered by IC50: 1 to 60 nM for the first, 0.5 to 10 nM for the second.

B16 and B17 cannot be ordered by IC50: 1 to 60 nM for the first, 0.5 to 10 nM for the second.

B18 and B19 fall in the same range of IC50: 1 to 60 nM for the first, 1 to 60 nM for the second.

B20 and B21 fall in the same range of IC50: 0.5 to 10 nM for the first, 0.5 to 10 nM for the second.

First: B22
Second: B23
The IC50 of the first is lower: 1 to 60 nM for the first, 50000 to 500000 nM for the second.

Compared with B24, B25 is lower in IC50: 50000 to 500000 nM for the first, roughly 400 nM for the second.

B26 showed an IC50 of 1 to 60 nM.

In the case of B13, the IC50 is reported as 0.5 to 10 nM and 1 to 60 nM.
